The values that follow come from patent CN101724074A (SUZHOU IND PARK CHENJIAN ANTIB, dated 2010).

This experiment addresses T1, 重组人ATP5B (rhATP5B) (human, UniProt P06576 48-529).
T1 construct: mature; Mr about 55 000; also called rhATP5B蛋白; rhATP5B抗原; not shown: His-tag and vector-derived residues of pET28a(+) (insert cloned SacI/HindIII)
Nature of the experiment: ELISA on culture supernatant of CHO-DG44 transfectants. In general terms: ELISA stands for enzyme-linked immunosorbent assay.

T1 sequence (P06576 48-529): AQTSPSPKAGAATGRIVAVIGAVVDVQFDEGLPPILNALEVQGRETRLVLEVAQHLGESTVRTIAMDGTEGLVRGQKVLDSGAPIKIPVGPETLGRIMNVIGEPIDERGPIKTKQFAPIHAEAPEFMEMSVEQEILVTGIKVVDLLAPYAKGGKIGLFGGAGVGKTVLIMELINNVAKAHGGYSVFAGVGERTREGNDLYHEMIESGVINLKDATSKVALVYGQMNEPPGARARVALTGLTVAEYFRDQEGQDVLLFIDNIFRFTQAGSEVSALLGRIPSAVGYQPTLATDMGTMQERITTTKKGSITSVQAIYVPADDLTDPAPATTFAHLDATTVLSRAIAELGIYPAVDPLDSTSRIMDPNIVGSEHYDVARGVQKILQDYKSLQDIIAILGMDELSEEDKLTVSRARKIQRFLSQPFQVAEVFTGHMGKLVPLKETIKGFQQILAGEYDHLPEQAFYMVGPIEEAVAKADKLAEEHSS

B1: 抗ATP5B人鼠嵌合抗体c7A8 (antibody, human IgG1, kappa, V domains shown)
VH: EVQLLESGAELVKPGASVKLSCTASGFNIKDAYMYWVRQRPEQGLEWIGRIDPANDNTKYDPKFQGRATITADTSSNTAYLQLSSLTSEDTAVHYCARFYSVYAMDYWGQGTSVTVSS
VL: TQSPAIMSASPGEKVTITCSASSSVSYMHWFQQQPGTSPKLWVYTTSNLAFGVPARFSGSGPGTSYSLTISRMEAEDAATYYCQQRSSYPLTFGAGTKLELTR
notes: Chimeric IgG1/kappa: signal peptide and variable region of m7A8 joined to human IgG1 constant regions; tested as culture supernatant of transfected CHO-DG44 clone E1; also called 血管抑素受体β亚基人源化嵌合抗体; 人源化嵌合抗体
For the molecule B1, the binding result was “binds”.
